Results reported in publication doi:10.1101/2022.02.07.479471 (bioRxiv, 2022).

Target: SARS-CoV-2 nsp12 (RNA-dependent RNA polymerase with N-terminal NiRAN domain) (SARS-CoV-2, UniProt P0DTD1)
Test: cryo-EM structure

B1: SARS-CoV-2 nsp9 with native N-terminus (natural protein)
chain: NNELSPVALRQMSCAAGTTQTACTDDNALAYYNTTKGGRFVLALLSDLQDLKWARFPKSDGTGTIYTELEPPCRFVTDTPKGPKVKYLYFIKGLNNLNRGMVLGSLAATVRLQ
B1: binds.
